We go through eight molecules from paper PMC4118869 (PLoS ONE, 2014).

The target in assay [1] is hemagglutinin of A/Anhui/01/2005 (H5N1), in the influenza virus antigen standard (Influenza A virus A/Anhui/1/2005 (H5N1), UniProt Q1WDM0, strain). As to the kind of experiment: ELISA. The note with it: one partner purified.
The target of assay [2] is hemagglutinin of A/Indonesia/05/2005 (H5N1), in the influenza virus antigen standard (Influenza A virus A/Indonesia/05/2005 …, UniProt A5A5L7, strain). Put plainly: ELISA. The note with it: one partner purified.
In assay [3] the target is hemagglutinin of A/HongKong/213/2003 (H5N1), in the influenza virus antigen standard (Influenza A virus A/Hong Kong/213/2003 …, UniProt Q4H2E2, strain). Put plainly: ELISA. The following applies: one partner purified.
Assay [4] addresses hemagglutinin of A/Brisbane/10/2007 (H3N2), in the influenza virus antigen standard (Influenza A virus A/Brisbane/10/2007 …, UniProt A8W8K8, strain). Put plainly: ELISA. The following applies: one partner purified.
In assay [5] the target is recombinant H1-HA (D18-I530), A/California/06/2009 (H1N1)pdm09 (Influenza A virus A/California/06/2009 …, UniProt C3W5S1, strain). Put plainly: SPR. The following applies: both partners purified.
In assay [6] the target is recombinant H5-HA, A/Vietnam/1203/2004 (H5N1) (Influenza A virus A/Vietnam/1203/2004 …, UniProt Q5EP31, strain). As to the kind of experiment: SPR. The following applies: both partners purified.
Assay [7] addresses T1, recombinant H2-HA, A/Japan/305/57 (H2N2) (Influenza A virus A/Japan/305/1957 …, UniProt P03451, strain).
T1 construct: source: bought: E-Enzymes (Protein Sciences in the SPR methods)
As to the kind of experiment: SPR. The note with it: both partners purified.

Assay [8] concerns the target recombinant H9-HA, A/HongKong/1073/99 (H9N2) (Influenza A virus A/Hong Kong/1073/99 …, UniProt Q9ICY5, strain). As to the kind of experiment: SPR. The following applies: both partners purified.
Assay [9] concerns the target recombinant HA1 domain (D18-R344), A/California/06/2009 (H1N1)pdm09 (Influenza A virus A/California/06/2009 …, UniProt C3W5S1, strain). Put plainly: SPR. The note with it: both partners purified.
For assay [10], the target named is hemagglutinin of A/California/07/2009 (H1N1)pdm09, in the influenza virus antigen standard (Influenza A virus A/California/07/2009 …, UniProt C3W5X2, strain). As to the kind of experiment: ELISA. The following applies: one partner purified.
Assay [11] deals with phage displayed HA gene fragment P66-I282 (Influenza A virus A/California/07/2009 …, UniProt C3W5X2). Put plainly: ELISA. The following applies: both partners purified.
The target in assay [12] is phage displayed HA gene fragment L193-K225 (Influenza A virus A/California/07/2009 …, UniProt C3W5X2). As to the kind of experiment: ELISA. The note with it: both partners purified.
Assay [13] has as its target T2, recombinant H3-HA, A/Brisbane/10/2007 (H3N2) (Influenza A virus A/Brisbane/10/2007 …, UniProt A8W8K8, strain).
T2 construct: source: bought: Protein Sciences
As to the kind of experiment: SPR; data not shown: sdAbs on immobilised recombinant H3-HA and H7-HA. The note with it: both partners purified.

The target in assay [14] is T3, recombinant H7-HA, A/Netherlands/219/2003 (H7N7) (Influenza A virus …, UniProt Q6VMK1).
T3 construct: source: bought: Protein Sciences
Described as above. The following applies: both partners purified.

Assay [15] has as its target hemagglutinin of A/Singapore/01/57 (H2N2), in the influenza virus antigen standard (Influenza A virus A/Singapore/1/1957 …, UniProt Q67333, strain). As to the kind of experiment: ELISA. The note with it: one partner purified.
Assay [16] has as its target phage displayed HA gene fragment D363-G478 (Influenza A virus A/California/07/2009 …, UniProt C3W5X2). As to the kind of experiment: ELISA. The following applies: both partners purified.
Assay [17] concerns the target T4, recombinant H7-HA, A/Netherlands/219/2003 (H7N7) (Influenza A virus …, UniProt Q6VMK1).
T4 construct: source: bought: Protein Sciences
As to the kind of experiment: SPR. The following applies: both partners purified.

For assay [18], the target named is T5, recombinant H1-HA (H1N1)pdm09 hemagglutinin (Influenza A virus (H1N1)pdm09; …, UniProt C3W5S1, strain).
T5 construct: source: bought: Protein Sciences
As to the kind of experiment: SPR. The following applies: both partners purified.

Assay [19] concerns the target recombinant H9-HA, A/HongKong/1073/99 (H9N2) (Influenza A virus A/Hong Kong/1073/99 …, UniProt Q9ICY5, strain). Put plainly: SPR. The following applies: both partners purified. The source holds these as a separate data set.
In assay [20] the target is T6, recombinant H2-HA, A/Japan/305/57 (H2N2) (Influenza A virus A/Japan/305/1957 …, UniProt P03451, strain).
T6 construct: source: bought: E-Enzymes (list of antigens) or Protein Sciences (SPR methods)
Put plainly: SPR. The note with it: both partners purified.

Assay [21] has as its target hemagglutinin of A/HongKong/1073/99 (H9N2), in the influenza virus antigen standard (Influenza A virus A/Hong Kong/1073/99 …, UniProt Q9ICY5, strain). As to the kind of experiment: ELISA. The note with it: one partner purified.

B1: R2a-G8 (VHH)
VHH: QLQLAESGGGLVQAGGSLRLSCAASGSTLNNNAIGWFRQAPGKEREGVSCMNSRDGTTNYADSVKGRFTISRDVAKNTVYLQMNSLKPEDTAVYFCAVKGFAPFLIGCPWGKAEYDYWGQGTQVTVSS
notes: source: E. coli WK6 periplasm, purified (Talon IMAC, Superdex 75 SEC)
For B1, the binding result in [1] is recorded as “binds”; in [2], “binds”; in assay [3] it was “binds”; in assay [4], “no binding”; in [8], “no binding”; in assay [10], “binds”. The binding result in assay [11], in assay [12], in assay [13] and in assay [14] was “no binding” each time. Also, the equilibrium dissociation constant (Kd) in assay [5] was determined as 3.55 nM; in assay [6], 9.07 nM; in [7], 18.5 nM; in assay [9], 7.66 nM. In addition, the off-rate constant (koff) in [5] came out at 0.000798 s⁻¹; in [6], 0.00223 s⁻¹; in assay [7] it was 0.0142 s⁻¹. The values for the kon in [5], in assay [6] and in [7] were 225000 M⁻¹ s⁻¹, 252000 M⁻¹ s⁻¹ and 764000 M⁻¹ s⁻¹, respectively.

B2: R1a-B6 (VHH)
VHH: QVQLVESGGGLVQPGGSLRLSCAASGSFFSRYRMGWYRQAPGEQRELVASIAYDGSTSYADPVKGRFTISRDNANTVHLQMYSLKPDDTAVYYCNLDPPGILYWGQGTQVTVSS
notes: also called R1a-B6 monovalent; source: E. coli WK6 periplasm, purified (Talon IMAC, Superdex 75 SEC)
In the case of B2, the binding result in assay [1] is given as “binds”; in assay [2], “binds”; in [3] it was “binds”; in assay [15], “binds”; in assay [4] it was “no binding”; in [10], “binds”. Also, the binding result in assay [11], in assay [12], in [16], in [13] and in assay [14] was “no binding” each time. Besides, the Kd in assay [5] is 0.86 nM; in assay [6], 0.52 nM; in [8], 6.89 nM.

B3: R1a-B6 monovalent (VHH)
VHH: QVQLVESGGGLVQPGGSLRLSCAASGSFFSRYRMGWYRQAPGEQRELVASIAYDGSTSYADPVKGRFTISRDNANTVHLQMYSLKPDDTAVYYCNLDPPGILYWGQGTQVTVSS
notes: source: E. coli WK6, periplasmic extract, purified (Talon IMAC, Superdex 75 SEC)
Turning to B3, the binding result in [17] is “no binding”. The Kd in [18] was found to be 0.36 nM; in assay [19], 4.19 nM.

B4: R1a-A5 (VHH)
VHH: QVQLVESGGGLVQPGGSLRLSCSASGSAVLFSTYPMSWYRQAPGKQRELVAAVTTDGSTSYADYAKGRFTISRDNAKNTVYLQMNSLKPEDTAVYYCNARDGFFNRYDYWGQGTQVTVSS
notes: also called R1a-A5 monovalent; source: E. coli WK6 periplasm, purified (Talon IMAC, Superdex 75 SEC)
Regarding B4, the binding result in assay [1] is “binds”; in assay [2] it was “binds”; in assay [3], “binds”; in assay [4], “no binding”; in [7], “no binding”; in assay [8], “no binding”. The binding result in [10] is on record as “binds”; in assay [11], “no binding”; in [12], “no binding”; in [16], “no binding”; in assay [13], “no binding”; in [14], “no binding”. Moreover, the dissociation constant Kd in assay [5] is 1.87 nM; in assay [6] it was 0.18 nM.

B5: R1a-A5 monovalent (VHH)
VHH: QVQLVESGGGLVQPGGSLRLSCSASGSAVLFSTYPMSWYRQAPGKQRELVAAVTTDGSTSYADYAKGRFTISRDNAKNTVYLQMNSLKPEDTAVYYCNARDGFFNRYDYWGQGTQVTVSS
notes: as for B3
As for B5, the binding result in assay [17], in assay [19] and in assay [20] was “no binding” throughout. For the same molecule, the Kd in assay [18] amounted to 1.56 nM.

B6: R2b-E8 (VHH)
VHH: QVQLVESGGGLVQPGGSLRLSCAASGSFFSRYRMGWYRQAPGEQRELVAGITYDDSTNYAGSVKGRFTISRDNAKNTVHLQMNSLKPEDTAVYYCNLNPPGNLYWGQGTQVTVSS
notes: as for B1
For B6, the binding result in assay [1] was “binds”; in [2] it was “binds”; in assay [3] it was “binds”; in assay [21], “binds”; in [4] it was “no binding”; in assay [7] it was “no binding”. In addition, the binding result in [10] was “binds”; in assay [11] it was “no binding”; in assay [12], “no binding”; in assay [16], “no binding”; in assay [13] it was “no binding”; in assay [14], “no binding”. Besides, the Kd in assay [5] worked out at 1.74 nM; in assay [6], 0.48 nM. Besides, the results for the koff in assay [5] and in assay [6] were 0.000628 s⁻¹ and 0.000143 s⁻¹, respectively. For the same molecule, the kon in assay [5] was found to be 361000 M⁻¹ s⁻¹; in assay [6] it was 299000 M⁻¹ s⁻¹.

B7: R2b-D8 (VHH)
VHH: QVQLVESGGGLVQPGGSLRLSCAASGFTFSWYDVGWYRRAPGKERELVADIASTRGTTNYADSVKGRFTISRDNAKNSVYLQMNSLKPEDTAVYYCNTRRDWRDYWGQGIQVTVSS
notes: as for B1
Turning to B7, the binding result is “binds” in [1]; “binds” in assay [2]; “binds” in assay [3]; “binds” in [15]; “no binding” in [4]; “no binding” in assay [8]. Moreover, the binding result in [10] is listed as “binds”; in assay [16], “binds”; in assay [13] it was “no binding”; in [14] it was “no binding”.

B8: R2b-D9 (VHH)
VHH: QVQLVESGGGLVQPGGSLRLSCLASGSAFSLYTMGWYRQAPGNQRELVAAITSGESTNYADSVKGRFTISRDNAKNTVYLQMNSLKPEDTAVYYCNADPLSTGWGQYSYWGQGTQVTVSS
notes: as for B1
In the case of B8, the binding result was “binds” in assay [1]; “binds” in assay [2]; “binds” in [3]; “binds” in assay [15]; “no binding” in [4]; “binds” in assay [10]. For the same molecule, the binding result in assay [11], in assay [12], in assay [16], in assay [13] and in assay [14] was “no binding” throughout. For the same molecule, the Kd was 0.18 nM in [5], 0.15 nM in assay [6], 2.17 nM in [7] and 128 nM in [8]. In addition, the koff in [5] was 2.96e-05 s⁻¹; in assay [6] it was 2.08e-05 s⁻¹; in [7], 0.000163 s⁻¹; in assay [8] it was 0.0528 s⁻¹. Moreover, the kon was found to be 167000 M⁻¹ s⁻¹ in [5], 141000 M⁻¹ s⁻¹ in assay [6], 75400 M⁻¹ s⁻¹ in assay [7] and 413000 M⁻¹ s⁻¹ in assay [8].
